Test results from patent publication US20160280796A1.

Assays:
[1] = molecular target: human CD3 (CD3ε of the TCR/CD3 complex) on purified human CD3 T cells (human) (UniProt P07766); experiment: flow cytometry on purified human CD3 T cells, antibody at 10 µg/ml
[2] = molecular target: human CD3 (CD3ε of the TCR/CD3 complex) on purified human CD3 T cells (human) (UniProt P07766); experiment: flow cytometry on purified human CD3 T cells, antibody at 1 µg/ml
[3] = molecular target: human CD3 (CD3ε of the TCR/CD3 complex) on purified human CD3 T cells (human) (UniProt P07766); experiment: flow cytometry on CD3+ Jurkat cells, 10 µg/mL, FL1: anti-His FITC, GRN-HLin (left panel). DOUBTFUL: the printed value disagrees with the histogram, which lies right of ESK1+L2K, and equals the second row of the left table of FIGURE 8
[4] = molecular target: human CD3 (CD3ε of the TCR/CD3 complex) on purified human CD3 T cells (human) (UniProt P07766); experiment: flow cytometry on purified human CD3 T cells, antibody at 0.1 µg/ml
[5] = molecular target: human CD3 (CD3ε of the TCR/CD3 complex) on purified human CD3 T cells (human) (UniProt P07766); experiment: flow cytometry on CD3+ Jurkat cells, 10 µg/mL, FL4: anti-His mouse mAb + APC anti mIgG, RED2-HLin (right panel); unstained Jurkat 7.61

Median fluorescence intensity (MFI) [1]: 188 MFI | Median fluorescence intensity (MFI) [2]: 153 MFI | Geom. Mean [3]: 47.9 | Median fluorescence intensity (MFI) [4]: 26.2 MFI | Geom. Mean [5]: 94.3
B1: control bi-specific antibody (irrelevant human IgG1 antibody ET901 as scFv replacing ESK1 scFv, with anti-CD3 scFv) (bispecific antibody, part only; not given: ET901 control scFv, part only)
chain, part: DVQLVQSGAEVKKPGASVKVSCKASGYTFTRYTMHWVRQAPGQGLEWIGYINPSRGYTNYADSVKGRFTITTDKSTSTAYMELSSLRSEDTATYYCARYYDDHYCLDYWGQGTTVTVSSGEGTSTGSGGSGGSGGADDIVLTQSPATLSLSPGERATLSCRASQSVSYMNWYQQKPGKAPKRWIYDTSKVASGVPARFSGSGSGTDYSLTINSLEAEDAATYYCQQWSSNPLTFGGGTKVEIK
